T1: E. coli RAGE Construct #7, 6His-(Thr)-[RAGE (235-336)] (human)
T1 construct: N-terminal 6His-(Thr) tag is part of the entry; expressed in E. coli; also called RAGE protein #7
T1 chain: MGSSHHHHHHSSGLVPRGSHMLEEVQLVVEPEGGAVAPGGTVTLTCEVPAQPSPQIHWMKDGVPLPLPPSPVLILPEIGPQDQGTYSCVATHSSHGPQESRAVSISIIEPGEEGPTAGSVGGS


Experiments:
[1] = molecular target: T1, E. coli RAGE Construct #7, …; assay: ELISA, antigen coated at 1 ug/ml
Description: (§1) Antigens (purified construct #1-7 proteins) were diluted into Coating Buffer [100 mM NaHCO₃, pH 8.2] to 1 μg/ml, and 100 μl of the resulting solution was then aliquoted into a 96-well Nunc Immuno Plate (Maxi-Sorb Surface, flat bottom, catalog #439454). The plate was sealed with sealing film and incubated at 4° C. overnight. The next day, the plate wells were each washed 3 times with 150 μL PBST buffer [Sigma PBS+0.05% Tween 20]. Then 300 ul of blocking solution (3% NFDM in PBST) was added to each well. The plate was incubated for 2 hours at room temperature and shaking at 100 rpm. After the incubation step, each well was again washed three times with 150 uL PBST. 100 ul of the corresponding antibody to be tested (i.e. 7F9, 11E6, and 4E5) was added at various dilutions made in PBST/0.5% BSA. The plate was then sealed with sealing film and incubated for 2 hours at room temperature and shaking at 100 rpm. Next the antibody solution was drained out of the wells, and each well then washed three times with 200 ul PBST. To each well then 200 ul of a 1:5000 dilution (in PBST/1% NFDM) of conjugated secondary antibody [Donkey anti-mouse HRPO conjugate, Jackson Immuno Research, Catalog #715-035-150] was added. […] Finally, 50 μL of 2M H₂SO₄ was added to each well to stop the reaction and the […] of each well was measured using a microtiter plate reader.

[2] = molecular target: T2, RAGE fragment coated in Fig. 4C (antigen not named on the sheet); assay: direct ELISA: purified E. coli RAGE construct protein coated at 1 ug/mL (construct not named for this panel), mAb titrated, donkey anti-mouse HRP, TMB
T2 construct: Placeholder: the panel cannot be tied to one of m19-m25
Description: as §1

[3] = molecular target: T1, E. coli RAGE Construct #7, …; assay: binding analysis of RAGE mutants of human sRAGE expressed in E. coli

binding result [1] | EC50 (read off the curve) [2] | binding result [3] | Binder
binds | – | – | anti-human RAGE monoclonal antibody 4E5 (murine, hybridoma-derived) (antibody, V domains shown, also called mAb4E5; ML37-4E5) VH: QVQLQQSGAELVRPGTSVKVSCKASGYAFNNYLIEWIKQRPGQGLEWIGVINPGSGGTNHNEKFKVKATLTADKSSSTAYIQLSSLTSDDSAVYFCARSAGTARARFAYWGQGTLVTVSA VL: DIQMTQSPSSLSASLGERVSLTCRASQDIGSSLNWLQQEPDGTIKRLIYATSSLDSGVPKRFSGSRSGSDYSLTISSLESEDFVDYYCLQYASFPFTFGSGTKLEIKR
– | ~30 pM | binds | anti-human RAGE monoclonal antibody 11E6 (murine, hybridoma-derived) (antibody, V domains shown, also called mAb11E6; ML37-11E6) VH: QIQLVQSGPELKKPGETVKISCKASGYTFTNFGMNWVKQAPGKGLKWMGYINTNTGESIYSEEFKGRFAFSLETSASTAYLQINNLKNEDTATYFCARSRMVTAYGMDYWGQGTSVTVSS VL: DIVMTQSQKFMSTSVGDRVSITCKASQNVGTAVAWYQQRPGQSPKLLIFSASNRYTGVPDRFTGSGSGTDFTLTLSNMQPEDLADYFCQQYSSYPLTFGVGTKLELKR
